# B1: tail tube protein (TTP) pb6 (natural protein, bacteriophage T5)
# chain: MSLQLLRNTRIFVSTVKTGHNKTNTQEILVQDDISWGQDSNSTDITVNEAGPRPTRGSKRFNDSLNAAEWSFSTYILPYKDKNTSKQIVPDYMLWHALSSGRAINLEGTTGAHNNATNFMVNFKDNSYHELAMLHIYILTDKTWSYIDSCQINQAEVNVDIEDIGRVTWSGNGNQLIPLDEQPFDPDQIGIDDETYMTIQGSYIKNKLTILKIKDMDTNKSYDIPITGGTFTINNNITYLTPNVMSRVTIPIGSFTGAFELTGSLTAYLNDKSLGSMELYKDLIKTLKVVNRFEIALVLGGEYDDERPAAILVAKQAHVNIPTIETDDVLGTSVEFKAIPSDLDAGDEGYLGFSSKYTRTTINNLIVNGDGATDAVTAITVKSAGNVTTLNRSATLQMSVEVTPSSARNKEVTWAITAGDAATINATGLLRADASKTGAVTVEATAKDGSGVKGTKVITVTAGG
# notes: tail tube protein pb6 of bacteriophage T5; domains pb6D1, pb6D2 and a protruding Ig-like domain; atomic model built for residues 3-378 (pb6D1 and pb6D2); The tail tube has 40 stacked trimeric rings
# B2: portal protein pb7 (natural protein, bacteriophage T5)
# chain: LNPGQRIIRDMEPVSHRTNRKPFTTGQAYSKIEILNRTANMVIDSAAECSYTVGDKYNIVTYANGVKTKTLDTLLNVRPNPFMDISTFRRLVVTDLLFEGCAYIYWDGTSLYHVPAALMQVEADANKFIKKFIFNNQINYRVDEIIFIKDNSYVCGTNSQISGQSRVATVIDSLEKRSKMLNFKEKFLDNGTVIGLILETDEILNKKLRERKQEELQLDYNPSTGQSSVLILDGGMKAKPYSQISSFKDLDFKEDIEGFNKSICLAFGVPQVLLDGGNNANIRPNIELFYYMTIIPMLNKLTSSLTFFFGYKITPNTKEVAALTPDKEAEAKHLTSLVNNGIITGNEARSELNLEPLDDEQMNKIRIPANVAGSATGVSGQEGGRPKGSTEGD
# notes: portal protein pb7 of bacteriophage T5, 403 residues in total; atomic model built for residues 11-377; source: also in virions treated with 4 M urea for 2 h at 37 °C and dialyzed; copies: 12
# B3: decoration protein pb10 (natural protein, bacteriophage T5, UniProt Q6QGD6 1-164, looked up)
# chain: MIDYSGLRTIFGEKLPESHIFFATVAAHKYVPSYAFLRRELGLSSAHTNRKVWKKFVEAYGKAIPPAPPAPPLTLSKDLTASMSVEEGAALTLSVTATGGTGPYTYAWTKDGSPIPDASGATYTKPTAAAEDAGSYKVTVTDSKQVSKDSTTCAVTVNPTVPGG
# notes: decoration protein pb10 of bacteriophage T5, 164 residues; alpha-helical domain and Ig-like domain; only residues 2-68 (alpha-helical domain) were resolved; One pb10 at the centre of each hexon; the Ig-like domain is flexible and was not modelled; also called gp10
# B4: p140 (natural protein, bacteriophage T5)
# chain: MFYSLMRESKIVIEYDGRGYHFDALSNYDASTSFQEFKTLRRTIHNRTNYADSIINAQDPSSISLAINFSTTLIESNFFDWMGFTREGNSLFLPRNTPNIEPIMFNMYIINHNNSCIYFENCYVSTVDFSLDKSIPILNVGIESGKFSEVSTFRDGYTITQGEVLPYSAPAVYTNSSPLPALISASMSFQQQCSWREDRNIFDINKIYTNKRAYVNEMNASATLAFYYVKRLVGDKFLNLDPETRTPLIIKNKYVSITFPLARISKRLNFSDLYQVEYDVIPTADSDPVEINFFGERK
# notes: tail tip complex protein p140 of bacteriophage T5
# B5: major capsid protein (MCP) pb8 (natural protein, bacteriophage T5, UniProt Q6QGD8 160-458, looked up)
# chain: AVNQSSSVEVSSESYETIFSQRIIRDLQKELVVGALFEELPMSSKILTMLVEPDAGKATWVAASTYGTDTTTGEEVKGALKEIHFSTYKLAAKSFITDETEEDAIFSLLPLLRKRLIEAHAVSIEEAFMTGDGSGKPKGLLTLASEDSAKVVTEAKADGSVLVTAKTISKLRRKLGRHGLKLSKLVLIVSMDAYYDLLEDEEWQDVAQVGNDSVKLQGQVGRIYGLPVVVSEYFPAKANSAEFAVIVYKDNFVMPRQRAVTVERERQAGKQRDAYYVTQRVNLQRYFANGVVSGTYAAS
# notes: major capsid protein pb8 of bacteriophage T5, 458 residues; atomic model built for residues 164-457; also called MCP gp8; gp8
# B6: baseplate hub protein pb3 (natural protein, bacteriophage T5)
# chain: MKKILDSAKNYLNTHDKLKTACLIALELPSSSGSAATYIYLTDYFRDVTYNGILYRSGKVKSISSHKQNRQLSIGSLSFTITGTAEDEVLKLVQNGVSFLDRGITIHQAIINEEGNILPVDPDTDGPLLFFRGRITGGGIKDNVNTSGIGTSVITWNCSNQFYDFDRVNGRYTDDASHRGLEVVNGTLQPSNGAKRPEYQEDYGFFHSNKSTTILAKYQVKEERYKLQSKKKLFGLSRSYSLKKYYETVTKEVDLDFNLAAKFIPVVYGVQKIPGIPIFADTELNNPNIVYVVYAFAEGEIDGFLDFYIGDSPMICFDETDSDTRTCFGRKKIVGDTMHRLAAGTSTSQPSVHGQEYKYNDGNGDIRIWTFHGKPDQTAAQVLVDIAKKKGFYLQNQNGNGPEYWDSRYKLLDTAYAIVRFTINENRTEIPEISAEVQGKKVKVYNSDGTIKADKTSLNGIWQLMDYLTSDRYGADITLDQFPLQKVISEAKILDIIDESYQTSWQPYWRYVGWNDPLSENRQIVQLNTILDTSESVFKNVQGILESFGGAINNLSGEYRITVEKYSTNPLRINFLDTYGDLDLSDTTGRNKFNSVQASLVDPALSWKTNSITFYNSKFKEQDKGLDKKLQLSFANITNYYTARSYADRELKKSRYSRTLSFSVPYKFIGIEPNDPIAFTYERYGWKDKFFLVDEVENTRDGKINLVLQEYGEDVFINSEQVDNSGNDIPDISNNVLPPRDFKYTPTPGGVVGAIGKNGELSWLPSLTNNVVYYSIAHSGHVNPYIVQQLENNPNERMIQEIIGEPAGLAIFELRAVDINGRRSSPVTLSVDLNSAKNLSVVSNFRVVNTASGDVTEFVGPDVKLAWDKIPEEEIIPEIYYTLEIYDSQDRMLRSVRIEDVYTYDYLLTYNKADFALLNSGALGINRKLRFRIRAEGENGEQSVGWATI
# notes: baseplate hub protein pb3 of bacteriophage T5
# B7: distal tail protein pb9 (natural protein, bacteriophage T5)
# chain: MRLPDPYTNPEYPGLGFESVNLVDNDPMIRDELPNGKVKEVKISAQYWGINISYPELFPDEYAFLDSRLLEYKRTGDYLDVLLPQYEAFRVRGDTKSVTIPAGQKGSQIILNTNGTLTGQPKAGDLFKLSTHPKVYKITNFSSSGNVWNISLYPDLFITTTGSEKPVFNGILFRTKLMNGDSFGSTLNNNGTYSGISLSLRESL
# notes: distal tail protein pb9 of bacteriophage T5
# Assays:
# Experiment in all cases: cryo-EM structure; mature T5 virions (fiberless mutant) purified by CsCl gradients, in buffer A (100 mM NaCl, 1 mM MgSO4, 1 mM CaCl2, 10 mM Tris-HCl, pH 7.6); icosahedral, symmetry-mismatch and local reconstructions of head, portal, connector, tail tube and tail tip
# [1] = biological target: tail terminator protein p142 (bacteriophage T5)
# [2] = biological target: adaptor protein p144 (bacteriophage T5)
# [3] = biological target: the molecule itself
# [4] = biological target: B5; settings: both partners purified
Molecule,stoichiometry N [3],also measured
tail terminator protein p142 (natural protein),,stoichiometry N [1]: 6
adaptor protein p144 (natural protein),,stoichiometry N [2]: 12
B1,3,
B2,12,
B3,,binding result [4]: binds
B4,3,
B5,775,
B6,3,
B7,6,

# Source: PMC11313276, “Structures of Mature and Urea-Treated Empty Bacteriophage T5: Insights into Siphophage Infection and DNA Ejection” (International Journal of Molecular Sciences, 2024)
